Measured values reported in patent US20020110800A1, “Use of SHP-1 and SHP-2 to detect compounds involved in neuronal survival” (McGill University, priority 1997, published 2002).

Tested on: SHP-2
Test: BDNF-stimulated association of SHP-2 with tyrosine-phosphorylated proteins in cortical neurons
Format: cell-based, rat
Text: FIG. 5 is a Western blot showing that BDNF stimulates the association of SHP-2 with tyrosine phosphorylated proteins in cortical neurons. Lysates prepared from cortical neurons treated with or without BDNF were immunoprecipitated with anti-SHP-2 antibody and probed with anti-pTyr antibody.
To determine the mechanism whereby the neutrotrophins stimulate the survival and growth of normal and injured neurons, we have asked whether the phosphoprotein phosphatases SHP-1 and SHP-2 play a role in the differentiation and survival of primary neurons, focusing our studies on cultured rat sympathetic cervical ganglion (SCG) and cortical neurons in order to determine the exact nature of this regulation.
Immunoprecipitations and immunoblotting were performed as previously described (Kaplan et al., Science, 252:554-558, 1991). […]

B1: BDNF: brain-derived neurotrophic factor, a neurotrophin, obtained from Peprotech (protein, UniProt P23560 19-247, looked up)
Neurotrophic factor BDNF …: APMKEANIRGQGGLAYPGVRTHGTLESVNGPKAGSRGLTSLADTFEHVIEELLDEDQKVRPNEENNKDADLYTSRVMLSSQVPLEPPLLFLLEEYKNYLDAANMSMRVRRHSDPARRGELSVCDSISEWVTAADKKTAVDMSGGTVTVLEKVPVSKGQLKQYFYETKCNPMGYTKEGCRGIDKRHWNSQCRTTQSYVRALTMDSKKRIGWRFIRIDTSCVCTLTIKRGR
- association of tyrosine-phosphorylated proteins with SHP-2: causes the association of tyrosine-phosphorylated proteins with SHP-2
